Like-named read-outs stand apart in the source and are kept apart here.
T1: human MerTK expressed on cells (human, UniProt Q12866 21-999)
T1 construct: whole, on cells; also called CHO-K1-hMerTK; CHO-K1-MerTK
T1 sequence (looked up): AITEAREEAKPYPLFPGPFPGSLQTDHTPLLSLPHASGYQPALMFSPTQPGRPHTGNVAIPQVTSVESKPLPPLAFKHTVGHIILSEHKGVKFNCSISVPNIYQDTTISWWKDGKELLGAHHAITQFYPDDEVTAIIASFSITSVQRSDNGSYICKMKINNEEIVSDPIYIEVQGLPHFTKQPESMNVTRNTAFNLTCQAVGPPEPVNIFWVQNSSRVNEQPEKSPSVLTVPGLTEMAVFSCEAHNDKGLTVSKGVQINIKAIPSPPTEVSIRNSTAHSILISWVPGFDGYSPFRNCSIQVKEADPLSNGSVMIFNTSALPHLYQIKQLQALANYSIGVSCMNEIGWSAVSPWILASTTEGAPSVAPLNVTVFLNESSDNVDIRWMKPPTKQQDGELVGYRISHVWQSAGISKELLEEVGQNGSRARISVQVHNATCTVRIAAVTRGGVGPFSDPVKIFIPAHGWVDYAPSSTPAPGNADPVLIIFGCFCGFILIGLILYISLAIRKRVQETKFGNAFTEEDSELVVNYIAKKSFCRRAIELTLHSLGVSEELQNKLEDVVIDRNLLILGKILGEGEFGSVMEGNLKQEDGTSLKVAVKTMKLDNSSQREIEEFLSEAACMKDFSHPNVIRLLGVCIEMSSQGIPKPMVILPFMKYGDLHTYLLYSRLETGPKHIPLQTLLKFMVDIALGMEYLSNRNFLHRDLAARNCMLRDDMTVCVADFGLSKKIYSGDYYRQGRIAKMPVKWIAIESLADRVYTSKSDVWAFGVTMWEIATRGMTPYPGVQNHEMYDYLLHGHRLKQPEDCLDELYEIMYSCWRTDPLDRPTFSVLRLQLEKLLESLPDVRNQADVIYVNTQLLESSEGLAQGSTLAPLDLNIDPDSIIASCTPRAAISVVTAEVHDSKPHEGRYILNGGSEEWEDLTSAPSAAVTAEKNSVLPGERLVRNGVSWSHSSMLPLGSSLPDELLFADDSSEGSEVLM

T2: Human MerTK-mouse Fc fusion protein (human, UniProt Q12866 21-499, limits assumed)
T2 construct: also called hMerTK; Human MerTK-mouse Fe fusion protein
T2 sequence (looked up): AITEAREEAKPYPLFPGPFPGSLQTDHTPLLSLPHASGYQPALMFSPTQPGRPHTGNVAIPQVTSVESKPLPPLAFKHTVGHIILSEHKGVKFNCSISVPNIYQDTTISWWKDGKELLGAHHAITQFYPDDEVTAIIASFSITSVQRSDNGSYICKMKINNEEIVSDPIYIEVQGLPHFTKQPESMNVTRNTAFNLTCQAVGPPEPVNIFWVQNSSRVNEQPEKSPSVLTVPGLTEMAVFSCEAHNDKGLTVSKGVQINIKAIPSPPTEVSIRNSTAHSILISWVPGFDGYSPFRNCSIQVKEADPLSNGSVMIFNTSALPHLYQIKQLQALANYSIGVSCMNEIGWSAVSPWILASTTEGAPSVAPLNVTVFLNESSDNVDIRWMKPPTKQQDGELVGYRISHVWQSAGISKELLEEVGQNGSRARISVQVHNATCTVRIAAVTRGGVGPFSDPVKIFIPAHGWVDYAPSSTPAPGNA


Key:
[1] = molecular target: T1, human MerTK expressed on cells; test: FACS on SK-MEL-5 cells expressing human MerTK, geometric mean
Procedure: (§1) To evaluate the binding properties on MerTK expressed on cells, the chimeric monoclonal antibodies were analyzed for their binding to human melanoma cell line SK-MEL-5 expressing MerTK by FACS analysis. Briefly, SK-MEL-5 cells were firstly incubated with 5-fold serially diluted chimeric mAbs starting at 20 nM at 4° C. for 30 mins. After washing by FACS buffer, the PE conjugated anti-human IgG secondary antibody was incubated with the cell-antibody complex in the wells at 4° C. for 30 mins to detect the antibodies those bound to the cells. The MFI of PE was evaluated by QuantAnalyzer 16.

[2] = molecular target: T2, Human MerTK-mouse Fc fusion protein; test: FACS blocking: binding of human MerTK-mouse Fc to Jurkat cells overexpressing human Gas6, MFI (AF488)
Procedure: (§2) To evaluate the blocking effects of anti-hMerTK mAbs on hMerTK binding to its ligand hGas6, a receptor blocking assay was set-up. Briefly, Jurkat cells engineered to overexpress human Gas6 were added to the 96-well microplates at a density of 5×10⁴ cells per well. Human MerTK-mouse Fe fusion protein (50 μL/well, […]) and the MerTK chimeric antibodies with a 3-fold serial dilution starting from 120 nM at a volume of 50 μL were added to the 96-well plates and incubated at 4° C. for 30 mins. After washing with FACS buffer, the plates were incubated with diluted Alex Fluor 488 conjugated goat anti-mouse IgG antibody for 30 mins at 4′C. After washing, the plates were analyzed by QuantAnalyzer 16.

[3] = molecular target: T1, human MerTK expressed on cells; test: FACS on CHO-K1 cells overexpressing human MerTK, MFI (PE)
Procedure: To evaluate the binding property to the antigen expressed on the cells, the chimeric monoclonal antibodies were analyzed for their binding to human MerTK overexpressed on CHO-K1 cells by FACS. Briefly, human MerTK overexpressing CHO-K1 (CHO-K1-MerTK) cells were firstly incubated with 5-fold serially diluted mAbs starting at 20 nM at 4° C. for 1 hour. After washing with FACS buffer, the PE conjugated anti-human IgG-Fc secondary antibody was added to each well and incubated at 4° C., for 30 mins. The mean fluorescence intensity (MFI) of PE were evaluated by QuantAnalyzer 16.

[4] = molecular target: T2, Human MerTK-mouse Fc fusion protein; test: FACS blocking: binding of human MerTK-mouse Fc to Jurkat cells overexpressing human Gas6, MFI (AF488); remark: listed apart in the source
Procedure: as §2

[5] = molecular target: T1, human MerTK expressed on cells; test: FACS on SK-MEL-5 cells expressing human MerTK, geometric mean; remark: listed apart in the source
Procedure: as §1

Binder | EC50 [1] [nM] | Top [1] [Geometric Mean] | IC50 [2] [nM] | EC50 [3] [nM] | Top [3] | IC50 [4] [nM] | EC50 [5] [nM] | Top [5] [Geometric Mean]
216G3D6 chimeric monoclonal antibody (antibody, V domains shown) VH: QVTLKESGPGILQPSQTLSLTCSFSGFSLSTSGMGVGWIRQPSGKGLEWLAHIWWDDDKHCNPALKSRLTISKDTSSNQVFLKIASLDTADTATYYCTQMTMTREFAYWGQGTLVTVSA VL: DIQMTQTISSLSASLGDRVTISCSAGQGISNYLNWYQQKPDGTVKLLIYYTSRLHSGVPSRFSGSGSGTDFSLTISNLEPEDIATYFCQQYSKFPYTFGGGTKLEIK | 0.17 | 8270 | 0.802 | – | – | – | – | –
247E5A8 chimeric monoclonal antibody (antibody, V domains shown) VH: DVQLQESGPGLVKPSQSLSLTCSVTGYSITGGYYWTWIRQFPGNKLEWMGYISYDGDNNYNPSLKNRISITRDTSKNQFFLNLNSVTTEDTATYYCAREGGRLRTMDYWGQGTSVTVSS VL: QIVLTQSPAIMSASPGEKVTITCRASSSVNYMHWFQQKPGTSPKLWIYTTSNLASGVPARFSGSGSGTSYSLTISRMEAEDAATYYCQQRSSYPFTFGSGTKLEIK | 0.094 | 7160 | 0.787 | – | – | – | – | –
10F7D9 chimeric monoclonal antibody (antibody, V domains shown) VH: QIQLVQSGPELKKPGETVKISCKASGYTFTNYGMNWVKQAPGKGLKWMGWINTYTGEPTYADDFKGRFAFSLETSASTAYLQINNLKNEDLATYFCATYGHYAWFAYWGQGTLVTVSA VL: QIVLSQSPAILSASPGEKVTMTCRASSSVSYMHWYQQKSGSSPKPWIYATSNLASGVPARFSGSGSGTSYSLTISRVEAEDAATYFCQQWGTKPLTFGAGTKLELK | 0.025 | 7070 | 0.696 | – | – | – | – | –
85H8D5 chimeric monoclonal antibody (antibody, V domains shown) VH: QIQLVQSGPELKKPGETVKISCMASGYTFTTHGVTWVKQAPGQGLQRMGWINTYSGVPTYADDFKGRFVFSLETSANTAHLQINNLKNEDTATYFCARTNNYRYFDVWGTGTTVTVSS VL: QIVLSQSPAILSSSPGEKVTMTCRASSSVSYMHWYQQKPGSSPKPWIYATSNLASGVPARFSGSGSGTSYFLTISRVEAEDAATYYCQQWNTDPPTFGGGTKLEIK | 0.022 | 6860 | 0.802 | – | – | – | – | –
252C12B10 chimeric monoclonal antibody (antibody, V domains shown) VH: QVQLQQPGTELVKPGASVKLSCKTSGYTFTSYWMHWMKQRPGQGLEWLGHINPSTGGSNYNEKFKSKATLTVDKSSNTAYMQLSSLTSEDSAVYYCARPRGFYGYSYWYFDVWGSGTTVTVSS VL: DIQMTQTTSSLSASLGDRVTISCSASQDINNYLNWYQHKPDGTIKVLIYFTSSLHSGVPSRFSGSGSGTEYSLTISNLEPEDIATYYCQQYSKLPPTFGSGTKLEIK | 0.043 | 4460 | 0.78 | – | – | – | – | –
254B4D9 chimeric monoclonal antibody (antibody, V domains shown) VH: QIQLVQSGPELKKPGETVKISCKASGYTFTAYGMSWVKQAPGKGLQWMGWINTYSGVPTYTDDFKGRFAFSLEASASTAFLQINNLKNEDTSTYFCARRAAVVAKYWYFDVWGTGTTVTVSS VL: DIQMTQSPSSLFASLGGKVIITCKSSQDINKRISWYQHKPGKGPRLLIHSTSSLQPGIPLRFSGSGSGRDYSFSISNLEPEDIATYFCLQYDNLLTFGAGTKLELK | 0.18 | 4840 | – | 0.19 | 5630 MFI (PE) | ~0.773 | – | –
276C2D1 chimeric monoclonal antibody (antibody, V domains shown) VH: QVQLQQSGPELVKPGASVKLSCKASGYTFTSYDINWVKQRPGLGLEWIGWIYPRDGYTKYNEKFKGKATLAVDTSSSTAYMELHSLTSEDSAVYFCARGYYSNLYYFDYWGQGTTLTVSS VL: EVVLTQSPPTMAASPGEKITITCSASSSISSNYLHWYQQKPGFSPKLLIYRTSNLASGVPARFSGSGSGTSYSLTIGTMEAEDVATYYCQQGRSIPLTFGAGTKLELK | – | – | – | 0.04 | 7750 MFI (PE) | 0.813 | 0.044 | 6950
280C6A3 chimeric monoclonal antibody (antibody, V domains shown) VH: QVQLQQSGPELVKPGASVKLSCKASGYSFTTYDINWVKQRPGQGLEWIGWIYPRDGSTKYNEKFKGKATLTLDTSSNTAYMGLHSLTSEDSAVYFCARGYYDNLYYFDYWGQGTTLTVSS VL: EIVLTQSPTTMAASPGEKITITCSASSSVSSNYLHWYQQKPGFSPKLLIYRTSNLASGVPARFSGSGSGTSYSLTIGTMEAEDVATYYCQQGRIVPLTFGAGTKLELK | – | – | – | 0.044 | 8310 MFI (PE) | 0.701 | 0.039 | 7490
293C2B7 chimeric monoclonal antibody (antibody, V domains shown) VH: QVQLQQSGPELVKPGASVKLSCKASGYTFTSYDINWVKQRPGQGLEWIGWIYPRDGYTKYKEKFKGKATLTVDTSSSTAYMELHSLTSEDSAVYFCARGFYSNLYYFDYWGQGTTLTVSS VL: EIVLTQSPTTMATSPGEKITITCSASSSISSNYLHWYQQKPGFSPKLLIYRTSNLASGVPDRFSGSGSGTSYSLTIGTMEAEDVATYYCQQGRSIPLTFGAGTKLELK | – | – | – | 0.064 | 7700 MFI (PE) | 0.779 | 0.055 | 6960
300A5A3 chimeric monoclonal antibody (antibody, V domains shown) VH: QVQLQQSGPELVKPGASVKLSCKASGYTFTTYDINWVKQRPGLGLEWIGWIYPRDGYTKYNEKFKGKATLAVDTSSSTASMELHSLTSEDSAVYFCARGYYDNLYYFDNWGPGTTLTVSS VL: ENVLTQSPTTVAASPGEKITITCSASSIISSNYLHWYQQKPGFSPKLLIYRTSNLASGVPARFSGSGSGTSYSLTIGTMEAEDAATYYCQQGRSVPLTFGAGTKLELK | – | – | – | 0.076 | 8350 MFI (PE) | 0.867 | 0.074 | 7490
265F11B5 chimeric monoclonal antibody (antibody, V domains shown) VH: QVQLQQSGPELVKPGASVRLSCKASGYTFTTYDINWVKQRPGLGLEWIGWIYPRDGYTKYNEKFKGRATLAVDTSSSTAYMELHSLTSEDSAVYFCTRGYYDNLYYFDYWGQGTTLTVSS VL: EIVLTQSPTTVAASPGEKITITCSASSIISSNYFHWYQQRPGFSPKLLIYRTSNLASGVPARFSGSGSGTSYSLTIGTMEAEDVATYYCQQGRSVPLTFGAGTKLELK | – | – | – | 0.061 | 9460 MFI (PE) | 0.798 | 0.048 | 7750
